{"source": "patent US20210032664", "about": "“ENGINEERED MEGANUCLEASES WITH RECOGNITION SEQUENCES FOUND IN THE HUMAN BETA-2 MICROGLOBULIN GENE” (Precision Biosciences, Inc., published 2021)", "binders": {"B1": {"name": "B2M 13-14 recognition sequence (dsDNA)", "DNA 1": "CTATCTCTTGTACTACACTGAA", "DNA 2": "TTCAGTGTAGTACAAGAGATAG"}}, "experiment_in_all_cases": "cell_activity; human T cells, 1 ug mRNA, day 3", "settings_in_all_cases": "tags: N-terminal SV40 NLS", "key": {"B2M 13-14x.93 EER66": {"target": "T1, B2M 13-14x.93 EER66 (Artificial Sequence)", "T1 chain": "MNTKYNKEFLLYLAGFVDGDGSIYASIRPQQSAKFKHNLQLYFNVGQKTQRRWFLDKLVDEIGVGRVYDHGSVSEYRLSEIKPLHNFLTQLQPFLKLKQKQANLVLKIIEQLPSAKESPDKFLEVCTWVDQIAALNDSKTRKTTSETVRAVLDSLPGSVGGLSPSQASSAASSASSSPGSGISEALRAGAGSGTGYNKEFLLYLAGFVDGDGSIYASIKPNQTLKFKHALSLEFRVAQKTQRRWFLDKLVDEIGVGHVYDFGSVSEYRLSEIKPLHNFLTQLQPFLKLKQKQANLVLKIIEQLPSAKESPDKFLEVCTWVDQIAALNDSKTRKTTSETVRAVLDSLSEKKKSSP", "protocol": "(§1) To test these variants of B2M 13-14x.93, donor human T cells were stimulated with anti-CD3 and anti-CD28 antibodies for 3 days, then electroporated with mRNA encoding a given B2M 13-14 meganuclease (1 μg) using the Amaxa 4D-Nucleofector (Lonza) according to the manufacturer's instructions. At 3 days post-electroporation, cells were stained with an antibody recognizing β-2 microglobulin (BD Biosciences) and analyzed by flow cytometry."}, "B2M 13-14x.93 EQY66": {"target": "T2, B2M 13-14x.93 EQY66 (Artificial Sequence)", "T2 chain": "T1 chain with R66Y, E80Q, E271Q", "protocol": "as §1"}, "B2M 13-14x.93 EE": {"target": "T3, B2M 13-14x.93 EE (Artificial Sequence)", "T3 chain": "T1 chain with R66Y", "protocol": "as §1"}, "B2M 13-14x.93 EQR66": {"target": "T4, B2M 13-14x.93 EQR66 (Artificial Sequence)", "T4 chain": "T1 chain with E271Q", "protocol": "as §1"}, "B2M 13-14x.93 EEY66": {"target": "T5, B2M 13-14x.93 EEY66 (Artificial Sequence)", "T5 chain": "T1 chain with R66Y", "protocol": "as §1"}}, "note": "Changes are numbered by the printed parent chain. Names may count otherwise.", "data": [{"binder": "B1", "values": [{"measurement": "activity", "setting": "B2M 13-14x.93 EER66", "result": 7.07, "unit": "% B2M-negative"}, {"measurement": "activity", "setting": "B2M 13-14x.93 EQY66", "result": 21.4, "unit": "% B2M-negative"}, {"measurement": "activity", "setting": "B2M 13-14x.93 EE", "result": 18.3, "unit": "% B2M-negative"}, {"measurement": "activity", "setting": "B2M 13-14x.93 EQR66", "result": 5.12, "unit": "% B2M-negative"}, {"measurement": "activity", "setting": "B2M 13-14x.93 EEY66", "result": 1.58, "unit": "% B2M-negative"}]}]}
